In US11643670B2, “Methods of enhancing chromosomal homologous recombination” (Massachusetts Institute of Technology, priority 2018, dated 2023):

Tested on: maternal Chd2 locus
Assay: Donor-free interchromosomal homologous recombination (ICHR) in IVF-derived Chd2^R1684H/+ embryos
Format: cell-based, mouse
Experimental: tracrRNA, crRNAs, and ssODNs were synthesized by Integrated DNA Technologies (TABLE 1). All injection mixtures were prepared in a final volume of 50 μL according to the following methodology: Using RNase-free water, reagents, and consumables, crRNA (final concentration 0.61 μM), tracrRNA (final concentration 0.61 μM), and ultrapure Tris-HCl, pH 7.39 (final concentration 10 mM, ThermoFisher) were mixed and incubated at 95° C. for 5 minutes. The mixtures were cooled to room temperature for 10 minutes on the benchtop, and then, EnGen Cas9-NLS S. pyogenes (New England Biolabs) was added to a final concentration of 30 ng/μL. The mixtures were incubated at 37° C. for 15 minutes before adding any remaining components: ssODN (final concentration 3 ng/μL or 30 ng/μL), RAD51 (Creative Biomart, final concentration 10 ng/μL). Injection mixtures were stored on ice and briefly heated to 37° C. prior to injection. For experiments utilizing RS-1, embryos were cultured in KSOM-AA (EMD Millipore MR-121-D) with […] RS-1 (Sigma) dissolved in DMSO or DMSO (Sigma, 1:1000) for 24 hours, washed, and cultured in EmbryoMax FHM HEPES Buffered Medium (Sigma) until collection for genotyping.
For experiments using wildtype recombinant proteins, the following proteins were used: RAD51 (Creative Biomart RAD51-134H), USP1/WDR48 (Creative Biomart USP1&WDR48-1067H), BCCIP (Origene TP303061), XRCC1 (TP304952), XRCC4 (Origene TP312684), DMC1 (Origene TP318311). For experiments using mutant RAD51, custom RAD51 preparations were produced by Creative Biomart according to their standard protocol for producing the wildtype RAD51 used in all other experiments. Mutant DNA sequences used for cloning are described in TABLE 2. All RAD51 mutants were modeled in human RAD51 transcript variant 4 (NCBI accession NM_001164269), as this is the transcript variant of the wildtype RAD51-134H protein used in all other experiments.
In vitro fertilization was performed using FERTIUP® Mouse Preincubation Medium and CARD MEDIA (Kyudo Company) according to the manufacturer's protocol. Non-virgin Chd2^R1684H/R1684H males that were >8 weeks old were used as sperm donors. Following IVF, embryos were cultured for 8 hours and then injected using the PNI protocol described below.
For all experiments except those described in FIG. 6, the male pronucleus was injected. Injections performed for the CPI portion of FIG. 6 were targeted to the cytoplasm. All microinjections were performed using a Narishige Micromanipulator, Nikon Eclipse TE2000-S microscope, and Eppendorf 5242 microinjector. Individual zygotes were injected with 1-2 pL of injection mixture using an “automatic” injection mode set according to needle size and adjusted for clear increase in pronuclear volume. Following injections, cells were cultured in KSOM-AA until collection for genotyping. For experiments giving rise to F0 animals, embryos were surgically implanted into pseudopregnant CD-1 females (Charles River Laboratories, Strain Code 022) 24-hours post-injection and allowed to develop normally until natural birth.
Embryos were collected at morula-to-blastocyst stage in 4 μL nuclease-free water. After collection, 4 μL of 2× embryo digestion buffer was added to each sample (final concentrations: 125 μg/mL proteinase K, 100 mM Tris-HCl pH 8.0, 100 mM KCl, 0.02% gelatin, 0.45% Tween-20, 60 μg/mL yeast tRNA) and embryos were lysed for 1 hour at 56° C. Proteinase K was inactivated via incubation at 95° C. for 10 minutes and DNA was stored at −20° C. until use.
Chd2^R1684H genotyping was performed via a two-step, nested approach. Except for experiments described in FIGS. 3A-3G, all 8 μL of embryo DNA were used as input for the initial, long round of PCR. Genotyping of mouse pups and adult animals was performed using 2 μL of purified tail DNA. For all embryo genotyping, reactions mixtures were set up in a UV-sterilized laminar flow hood using sterile reagents and filter tips to avoid contamination. […]

[1] = compared to embryos injected with wildtype RAD51

B1: G151D: recombinant RAD51 gain-of-function mutant with increased strand exchange activity, SEQ ID NO: 8 (protein)
chain: MAMQMQLEANADTSVEEESFGPQPISRLEQCGINANDVKKLEEAGFHTVEAVAYAPKKELINIKGISEAKADKILTESRSVARLECNSVILVYCTLRLSGSSDSPASASRVVGTTGGIETGSITEMFGEFRTGKTQICHTLAVTCQLPIDRDGGEGKAMYIDTEGTFRPERLLAVAERYGLSGSDVLDNVAYARAFNTDHQTQLLYQASAMMVESRYALLIVDSATALYRTDYSGRGELSARQMHLARFLRMLLRLADEFGVAVVITNQVVAQVDGAAMFAADPKKPIGGNIIAHASTTRLYLRKGRGETRICKIYDSPCLPEAEAMFAINADGVGDAKD
In the case of B1, the “efficiency of ICHR stimulation” value is reported as about 100%, the “indel-to-ICHR ratio (level)” value is reported as “near zero” and the indel events (27 injected zygotes) is reported as “not a single indel event was identified”. For the same molecule, the apparent editing efficiency (blastocysts from Cas9/crRNA/tracrRNA-injected embryos) was 22%, the “ICHR rate compared with baseline (Cas9-only embryos)” value (co-injected with Cas9/crRNA/tracrRNA, no donor) was “ICHR was observed in all edited cells” and the indel-to-ICHR ratio (compared to control embryos) was “drastic decrease”. For the same molecule, the overall indel rate (compared to control embryos) was “drastic decrease”, the indel-to-ICHR ratio [1] was “significant decreases” and the overall indel rate [1] was “significant decreases”.
